# Test results as given in the supplement of paper PMC9170038.
# Test system: K4 kissing-loop RNA reporter
# Assay: apparent KD of K4 kissing-loop reporter; higher = weaker reporter binding
# Settings: Eterna round: R107; input ligand: theophylline 20 uM
# Protocol: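 RNA-MaP round R107: designed RNA switches with theophylline, tryptophan, arginine or FMN aptamers are transcribed on-chip within common flanks. They are titrated with a labelled K4 kissing-loop RNA reporter in RNA-MaP buffer (100 mM Tris pH 7.5, 80 mM KCl, 4 mM MgCl2), without ligand or with the indicated ligand. Median apparent KD per design.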
# 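Also: bound reporter read as fluorescence of individual clusters on recovered sequencing chips by microscopy, with normalized cluster intensities fitted with a binding model.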
row,Sequence,apparent KD of K4 kissing-loop reporter [nM]
1,CCGCUACCCUCAGGAUAUUAAAUAUUAGUGAUGUUAAUAAACCGAUGGCGAAAGCCAUCGGUAUGUUGAGAAGGGAGGGUAGCGG [whbob_SS_FMNB__2th196],549
2,UUUGUAUAGGGAAGGAGCGUGAAUGAGAAAGAAUAUAGUGAUGUUAUAUAGAAGAAAGAAUCACAGGUAGGUCGCCCGGAGGAGG [SSArgB.G],482
3,UUAGUCAGAUUAUUAUUAGCCUGCGAGACUAAGGAUAUCCGAAUUCGGAGAAGGUAGUGAUGUUACUUUGGCAGGCACUGACAUU [AK8 Exc FMN A],643
4,CACGGAGUGAUGUUCCGACCGAGGAACGAUACCAGACAAGUAUACGUCCCUUGGCAGCGUUUCUUAUAUAGUCAACGUUACCGUA [Theo A Ex t3],537
5,UUAGUCUAGAGAAGGAGCGAGUGAUGUUCGCAGCCCAAAUAAUAAUAAUAAUAAGGGCAUCCUCAGGUAGGUCGCUCUAGACAUU [AK5 Exc Arginine B],354
6,GGCUUAUUCUAUGAUACCAGCGUCACAUCGGGACUGCGCACGCAGCAGGCGAGUGAUGUUCGCCCUUGGCAGCAUCUCGGCGACU [theeternabot_exclusion_KL_Theo_B_26],250
7,UUUUUGGAGAAUUAUAGUGAUGUUAUGAAGAAGGAUAUCUAAAGAUGGAGAAGGUUUAAUAGUUAAGGGAUGGAGGGUGGGUGGG [ExFMNA.P],221
8,GUAGCACUUGAUAGUGAUGUUAUCAAGGACAAGGAUAUCAUCUCAAUGAGAAGGUGUCCUUGAUAACAGCUACGGGAAUAUCCCA [Omei KL FMN A Exc D v1],280
9,ACACUUUACGUAGGAUAUGCGACGAGUGAUGUUCGUCAGGCGGCUUUAGCUUAAUCAGGCCGCCUAGCAGAAGGACGGGCAGUGU [Zaretiesre],195
10,AAAAUAAAUCAGUGAUGUUGGUAUCCGGAUACCAGCGAUAAUCAUCGCCCUUGGCAGCCGUGGACGUACAAAAUAAGUACGUCCU [MatMod 16 - Jieux - Same State - Theophylline A],171
11,UAGGAGUGAUGUUCCUAUAGCAGGUAGGAAGGAGCGCCCAUUUGGGCAGGUAGGUCGCCUACCGGCCCUAAGUUAAACCUUAGGC [Rariar],109

# Same assay, conditions: Eterna round: R107; input ligand: tryptophan 2.4 mM
row,Sequence,apparent KD of K4 kissing-loop reporter [nM]
1,UGUGAACAAAAGUAGAGUGGACCACUAUAGCGAGGACCGGUACGGCCGCCACUCGUACAUGUAUUCAGUGAUGUUGAAAUGAGCU [whbob_EX_Tryp_A_t15],150
2,GUCCCGAGUGAUGUUCGGGUCGUUUGGGAAGGAGCGCCCGGAAGGGCAGGUAGGUCGCCCGGACCCUGCAGGUAACUGUUGGGCC [#2 Same State - Arginine A Attempt #19 (HarryS)],194
3,UUUGGUUUCUCGGCCGCCACUCGUGGGAAAUGGGCCUCAGGGAUAUAGUGAUGUUAUGUAAAGAAGAGGACCGGGAGAAGGAAGG [ExTryptoB.Dl],233
4,AAACGCUGUGAAUAACACAGCGAAAAUUCGCGAGGACCGGUACGGCCGCCACUCGCUAACUGCGAGUGAUGUUCGAUAAUAAAAU [Mat - Mod of OpenEnded 3 - D11],105
5,CCGGCCCGGCCGGAUACCAGUGCGCCGCUGGGAACUGCGGGCCCAGAGUGAUGUUCGGGACACCCUUGGCAGCCGCCUGGGUCGC [#2 Same State - Theophylline B Attempt #25 (HarryS)],439
6,ACGUGCACUAGUGAUGUUAGAAAAUACGAAGGAGCGGGCGAAAGCCCAGGUAGGUCGCGUAAUAGCACGAGCCACGAAAGUGGCA,248
7,UAUCUUUACUGAAGGAGCGAGCAUUUUGGAGUGAUGUUCCGAGCGAGUGAUGUUCGCAUAGCUCAGGUAGGUCGCAGUGGGAAAA [Same State Arginie B GF 15],138
8,UCGAGUUGACGAAAAGUCAACUCGUGAGAUACCAGUGACGAAAGUCACCCUUGGCAGCUCACUGCCAGUGAUGUUGGUGUAUAGA [#06 K4 Theophylline A Same State],955
9,GAUUUAGAGGCGGCCGCCACUAGUGAUGUUAGUGAUGUUUGAUACUGUAUAUAUCGGCGUGUAGAUAGGACCGGGCCUGAUGGAG [drrdmullin],196
10,AAGUAGCUCUCGGCCGCCACUCCUCAGUGAUGUUGAGAUAUUAAUUGCCAAUUGGCGUAUUUAAAGAGGACCGGGAGAGCUACAA [AK3 SS Tryptophan B],117
11,UCUUGAGUAUAUGAUACCAGCAGUGAGAGACAGGAAGUAUAGUGAUGUUAUAUGAGAGAAUGCCCUUGGCAGCGUGUGCGGUGGG [SSTheophylB.S],94.7
12,AACUUGUUUGGAGGAUAUUCUUUAUUCGACAUAACCUUCUAUAAGGUGCAGUGAUGUUGCAAUAUAGGAGAAGGUCGAGUGAGAA [Exclusion FMN B Gf 16],186
13,GUAGCACUUGACAGUGAUGUUGUCAAGGACAAGGAUAUCAUCUCAAUGAGAAGGUGUCCUUGAUAACAGCUACGGGAAUAUCCCA [Omei KL FMN A Exc D v3],123
14,AAGUUGAACUGAAGGAGCGAGAAAUAGAAUGUAAGAAUAUAUGCUAGUGAUGUUAGAAAUUCUCAGGUAGGUCGCAGUAAGUUUU [V2],285
15,UGAUACCAGACUGAUACCAGCGAGUGAUGUUUGCUGAAAUCAGGGUCAAAGACCCUGUCUCGCCCUUGGCAGCAGUCUGGUAUCU [TheoBX 21 #SwitchBubble #StaticStem],688
16,AGAGCGGUCGAAGGAUAUGAGACAACCAACGGUGAGUGAUGUUUGCCGAGUAAACCUCUAGUUGCGUCAGAAGGUCGGCUCAGUC [theeternabot_sameState_KL_FMN_B_25],520
17,AAAUUCUUUUUUUUAUUUAAGUUUUCAGAAGGAGCGUGGUAGUACACAGGUAGGUCGCUGAAUUUUGGGCUAGUGAUGUUAGUUA [whbob_SS_Arginine_A_sa114],160
18,AAAACGCUGGAUGAAUAACAUCUAGCGAAUCGAGGACCGGUACGGCCGCCACUCGGAGCUAAACUGCGAGUGAUGUUCGUAAAAU [Mat - Mod of OpenEnded 3 - D18],428
19,CGCGUAUCGGCAGGAUAUGGAGUUGAGUGAUGUUCAGCAAUGGGUCAUCAUCUUUAUGACAAUCCACCAGAAGGGCCGAUACGCG,812
20,GAAACGUUGCGGACUAUCGCAUAAAGUCACCGAGGACCGGUACGGCCGCCACUCGCCAGUGAUGUUGGCGUGUUUGCGCGCUGUG [Titebebi],178
21,AAAUAUUCGAGUGAUGUUCGUUAAAUUACAGAGGAUAUGCUUAAAAGCAGAAGGCUGUAUUUCUAUUUGUUAUGUAAUUUUAAAA [JR_ExcFMNA_Sub004],115
22,AACCGAGGUAAUCCACAAAGAUAACAUGAUACCAGAUAUAUAAAUAUCCCUUGGCAGCAUGGCAUGAGUGAUGUUCAUGUGUCUU [KL-SSTheo-A10],356

row,Sequence,apparent KD of K4 kissing-loop reporter [nM]
1,GGAAGAAGUGGUGUUGAUUAAGAAGCGGAAGGAGCGCCGAAGAAGGCAGGUAGGUCGCCGAAAUAUAGUGAUGUUAUAUAAAAGG [ExArg.A],199
2,CGUGCCCGGCCGGAUACCAGUGACCCGCUGGGAACCGCGGGCCCAGAGUGAUGUUCGGGACACCCUUGGCAGCCGCCUGGGCGGC [#2 Same State - Theophylline B Attempt #13 (HarryS)],655
3,AUUCUUAUAAUAACACUAUAUACAACUGAAGGAGCGACAAUAAAGUCAGGUAGGUCGCAGAAUAAAUGAGUGAUGUUCAUUUUUA [JR_ExcArginiA_Sub011],86.8
4,GCGCGUCAUGUCAGCGGUGACACUGUCGAUACCAGUGCCGGAAGGCGCCCUUGGCAGCGACGUGCUGGAGUGAUGUUCCAGCGUU [#2 Exclusion - Theophylline A Attempt #28 (HarryS)],130
5,AAGCAGUCACUCGUAUCCAUCGAAGAUGGUCGAGGACCGGUACGGCCGCCACUCGGAGUGAUGUUCCGAAGACUGCAAAAUAAAA [#SwitchBubble 13],348
6,UGGUUUGGAAGUGAUGUUUCUAUAAGUGAUACCAGACAAAAGAAAGUCCCUUGGCAGCACAAUGAUGCCAAGGAAACGGCAUGAU [#15 K4 Theophylline A Same State],150
7,UAGCGUAUCAGAGGAUAUGAUAUGUUAUGCAGUGAUGUUGCAUGAUGUAGCAGAAUUCUGAGUGUAUCAGAAGGCUGAUAUGCUA [FMN B Ex t3],88.6
8,GCCGUAGAUUGAAGGAGCGUUCUUACUGAGUACGGCAACCGGAAGUGAUGUUUCCAGGUGGAACAGGUAGGUCGCAAUCUACGGC,93.9
9,AAGUGAUGUUGUAGUGAUGUUGUGAUGUUGCAGGAUAUAUAGUGAUGUAGAAGGGUAUGUGCAGUGUUGUUAUUUGAGUGUUGAU [zffdmullin],66.9
10,GGAUAGGAUAGAGGAUAUGGAAAACACAGAAAUAACUUGUUGUGUUUAUCCAUAGGGAGUGAUGUUCCAGAAGGCUGUCCUAUCG [MatMod 20 - Jieux - Exclusion - FMN B],151
11,CCGCUACCCUCAGGAUAUUAAAUAUUAGUGAUGUUAAUAAACCGAUGGCGAAAGCCAUCGGUAUGUUGAGAAGGGAGGGUAGCGG [whbob_SS_FMNB__2th196],635
12,UUUGUAUAGGGAAGGAGCGUGAAUGAGAAAGAAUAUAGUGAUGUUAUAUAGAAGAAAGAAUCACAGGUAGGUCGCCCGGAGGAGG [SSArgB.G],337
13,UUAGUCAGAUUAUUAUUAGCCUGCGAGACUAAGGAUAUCCGAAUUCGGAGAAGGUAGUGAUGUUACUUUGGCAGGCACUGACAUU [AK8 Exc FMN A],576
14,CACGGAGUGAUGUUCCGACCGAGGAACGAUACCAGACAAGUAUACGUCCCUUGGCAGCGUUUCUUAUAUAGUCAACGUUACCGUA [Theo A Ex t3],405
15,UUAGUCUAGAGAAGGAGCGAGUGAUGUUCGCAGCCCAAAUAAUAAUAAUAAUAAGGGCAUCCUCAGGUAGGUCGCUCUAGACAUU [AK5 Exc Arginine B],292
16,GGCUUAUUCUAUGAUACCAGCGUCACAUCGGGACUGCGCACGCAGCAGGCGAGUGAUGUUCGCCCUUGGCAGCAUCUCGGCGACU [theeternabot_exclusion_KL_Theo_B_26],232
17,UUUUUGGAGAAUUAUAGUGAUGUUAUGAAGAAGGAUAUCUAAAGAUGGAGAAGGUUUAAUAGUUAAGGGAUGGAGGGUGGGUGGG [ExFMNA.P],194
18,GUAGCACUUGAUAGUGAUGUUAUCAAGGACAAGGAUAUCAUCUCAAUGAGAAGGUGUCCUUGAUAACAGCUACGGGAAUAUCCCA [Omei KL FMN A Exc D v1],312
19,ACACUUUACGUAGGAUAUGCGACGAGUGAUGUUCGUCAGGCGGCUUUAGCUUAAUCAGGCCGCCUAGCAGAAGGACGGGCAGUGU [Zaretiesre],181
20,AAAAUAAAUCAGUGAUGUUGGUAUCCGGAUACCAGCGAUAAUCAUCGCCCUUGGCAGCCGUGGACGUACAAAAUAAGUACGUCCU [MatMod 16 - Jieux - Same State - Theophylline A],183
21,UAGGAGUGAUGUUCCUAUAGCAGGUAGGAAGGAGCGCCCAUUUGGGCAGGUAGGUCGCCUACCGGCCCUAAGUUAAACCUUAGGC [Rariar],89
